Assay [1] addresses clathrin adaptor AP-2, endogenous in 293T cells (detected by its α adaptin subunit), O95782;Q96CW1;P53680. The assay is described as follows: cross-linking co-immunoprecipitation (anti-HA IP), Western blot quantification. Conditions: read off a plot.
Assay [2] deals with clathrin adaptor AP-1, endogenous in 293T cells (detected by its γ-adaptin subunit), O43747;Q9BXS5;P61966. The assay is described as above. Conditions: read off a plot.
The mark [3] stands for this setting: 293T tetherin Y6,8A cells, PFA (0.05% w/v) cross-linking, 48 h post transfection, parent: est. 2.3.
Where [4] appears, read: 293T tetherin cells, PFA (0.05% w/v) cross-linking, 48 h post transfection, parent: est. 0.9.
[5] abbreviates: 293T tetherin Y6,8A cells, PFA (0.05% w/v) cross-linking, 48 h post transfection, parent: est. 1.8.
[6] abbreviates: 293T tetherin cells, PFA (0.05% w/v) cross-linking, 48 h post transfection, parent: est. 1.5.
The mark [7] stands for this setting: 293T tetherin Y6,8A cells, DMSO, PFA (0.05% w/v) cross-linking, 48 h post transfection, parent: est. 1.7.
Where [8] appears, read: 293T tetherin Y6,8A cells, DMSO, PFA (0.05% w/v) cross-linking, 48 h post transfection, parent: est. 2.5.

These results are taken from PMC4552633.

“HIV-1 NL4.3 Vpu-HA (codon optimized, pCR3.1 Vpu-HA) A14L; W22A”: the response (% relative to input control) in assay [1] (setting [3]) was 0; in assay [1] (setting [4]), 0; in assay [2] (setting [5]), 0; in assay [2] (setting [6]), 0.45.
Turning to “HIV-1 NL4.3 Vpu-HA (codon optimized, pCR3.1 Vpu-HA) ELV”, the response (% relative to input control) in assay [1] (setting [7]), in assay [1] (setting [3]), in assay [1] (setting [4]), in assay [1] (parent: est. 0), in assay [2] (setting [8]) and in assay [2] (setting [5]) was 0 throughout. Moreover, the figures for the response (% relative to input control) in assay [2] (setting [6]) and in assay [2] (parent: est. 0) were 0.95 and 0, respectively.
On to “HIV-1 NL4.3 Vpu-HA (codon optimized, pCR3.1 Vpu-HA) L41A; I42A; L45A; I46A”, for which the response (% relative to input control) in assay [1] (setting [3]) came to 0; in assay [1] (setting [4]), 0; in assay [2] (setting [5]), 0; in assay [2] (setting [6]) it was 0.1.
“HIV-1 NL4.3 Vpu-HA (codon optimized, pCR3.1 Vpu-HA) N54H; E55G”: the response (% relative to input control) in assay [1] (setting [3]), in assay [1] (setting [4]), in assay [2] (setting [5]) and in assay [2] (setting [6]) was 0 in each case.
Consider “HIV-1 NL4.3 Vpu-HA (codon optimized, pCR3.1 Vpu-HA) S52A; S56A”, for which the response (% relative to input control) in assay [1] (setting [7]), in assay [1] (setting [3]), in assay [1] (setting [4]), in assay [1] (parent: est. 0), in assay [2] (setting [8]) and in assay [2] (setting [5]) was 0 in each case. Besides, the response (% relative to input control) stood at 1 in assay [2] (setting [6]) and 0 in assay [2] (parent: est. 0).
